B1: human Fas ligand, recombinant (ligand)
chain: QIGHPSPPPEKKELRKVAHLTGKSNSRSMPLEWEDTYGIVLLSGVKYKKGGLVINETGLYFVYSKVYFRGQSCNNLPLSHKVYMRNSKYPQDLVMMEGKMMSYCTTGQMWARSSYLGAVFNLTSADHLYVNVSELSLVNFEESQTFFGLYKL
B2: monomeric human Fas receptor extracellular domain (domain or fragment)
chain: QVTDINSKGLELRKTVTTVETQNLEGLHHDGQFCHKPCPPGERKARDCTVNGDEPDCVPCQEGKEYTDKAHFSSKCRRCRLCDEGHGLEVEINCTRTQNTKCRCKPNFFCNSTVCEHCDPCTKCEHGIIKECTLTSNTKCKEEGSRSN

Legend:
[1] = target: B2; assay: cell-based or functional assay
[2] = target: B2; assay: cell-based or functional assay; remark: listed apart in the source
[3] = target: B1; assay: SPR

Row | Binder | Jurkat cell killing (cell-viability assay), EC50 [1] [nM] | DNA fragmentation (oligonucleosomes in the cytosol) in Jurkat cells, 8 h, EC50 [2] [nM] | Kd [3] [nM]
1 | B1 | 7.1 | 2.8 | 
2 | B2 |  |  | 14
